Where a chain is given by its changes, count along the chain named. Where two headings read alike, the source gives them in different places. One block for each molecule: values may come before it.
Columns and labels:
[1] = biological target: T1, human EGFR, native, on the cell surface (human, UniProt P00533 25-1210); test: Mirrorball microplate cytometry, adherent MDA-MB-468 cells
T1 construct: MCF7 is EGFR-low and serves as low-expression control; also called native cell-surface EGFR

[2] = biological target: recombinant 6xHis-tagged human EGFR ectodomain (human) (UniProt P00533); test: SPR multi-cycle, VHH over amine-coupled EGFR ectodomain
[3] = biological target: recombinant human EGFRvIII ectodomain (human) (UniProt P00533); test: SPR multi-cycle, VHH over amine-coupled EGFRvIII ectodomain
[4] = biological target: T2, human EGFR-Fc fusion protein (human, UniProt P00533 25-645); test: SPR single-cycle, VHH over amine-coupled human EGFR-Fc
T2 construct: Bought; not shown: Fc part of the bought fusion

[5] = biological target: T3, recombinant 6xHis-tagged human EGFR ectodomain (human, UniProt P00533 25-645); test: SPR (value of Table 2 repeated in Table 6)
T3 construct: extracellular domain; Bought; also called recombinant human EGFR; EGFR extracellular domain; not shown: 6xHis tag

[6] = biological target: T3, recombinant 6xHis-tagged human EGFR …; test: SPR multi-cycle, VHH over amine-coupled EGFR ectodomain
Procedure: In the first SPR experiment, multi-cycle kinetic analyses were performed on a Biacore™ 3000 instrument (GE Healthcare) at 25° C. in HBS-EP buffer [10 mM HEPES, pH 7.4, containing 150 mM NaCl, 3 mM EDTA and 0.005% (w/v) surfactant P20]. […] An ethanolamine-blocked flow cell served as the reference. Monomeric VHHs at concentrations ranging from 0.1 to 100 nM were injected over the EGFR and EGFRvIII surfaces in HBS-EP buffer at a flow rate of 20 μL/min. […] Contact times were 180-300 s and dissociation times were 300-600 s.

[7] = biological target: T2, human EGFR-Fc fusion protein; test: SPR, VHH over human EGFR-Fc;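 note: Single-cycle kinetics on Biacore T200 at 25 °C in HBS-EP, monomeric VHHs at 0.6–50 nM flowed over immobilized EGFR, 180 s association, 600 s dissociation, ethanolamine-blocked reference cell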
Procedure: (§1) In the second SPR experiment, single-cycle kinetic analyses were performed on a Biacore™ T200 instrument (GE Healthcare) at 25° C. in HBS-EP buffer. […] An ethanolamine-blocked flow cell served as the reference. Monomeric VHHs at concentrations ranging from 0.6 to 50 nM were injected over the EGFR surfaces in HBS-EP buffer at a flow rate of 40 μL/min. The contact time was 180 s and the dissociation time was 600 s. The EGFR surfaces were regenerated using a 10 s pulse of 10 mM glycine, pH 1.5.

[8] = biological target: T4, rhesus EGFR-Fc fusion protein (rhesus, UniProt P55245 25-645); test: SPR single-cycle, VHH over amine-coupled rhesus EGFR-Fc
T4 construct: Bought; not shown: Fc part of the bought fusion

[9] = biological target: T4, rhesus EGFR-Fc fusion protein; test: as above; remark: listed apart in the source
Procedure: as §1

[10] = biological target: T2, human EGFR-Fc fusion protein; test: ELISA, VHH titrated from about 0.5 to 1000 ng/mL, OD 450 nm
[11] = biological target: T4, rhesus EGFR-Fc fusion protein; test: as above
[12] = biological target: T5, mouse EGFR-Fc fusion protein (mouse, UniProt Q01279 25-647); test: as above
T5 construct: Bought; not shown: Fc part of the bought fusion

[13] = biological target: T5, mouse EGFR-Fc fusion protein; test: SPR single-cycle, VHH over amine-coupled mouse EGFR-Fc
Procedure: as §1

[14] = biological target: T2, human EGFR-Fc fusion protein; test: ELISA, VHH titrated from about 0.5 to 1000 ng/mL, OD 450 nm; remark: listed apart in the source
[15] = biological target: T4, rhesus EGFR-Fc fusion protein; test: as above; remark: listed apart in the source
[16] = biological target: T5, mouse EGFR-Fc fusion protein; test: as above; remark: listed apart in the source
[17] = biological target: T1, human EGFR, native, on the cell surface; test: Mirrorball microplate cytometry, serial dilution, AF488 anti-human Fc; the cell line is not named in the legend of FIG. 5D (paragraph 463 treats it with the MDA-MB-468 assay of FIG. 5B)

Molecule: EG2-Fc (Fc fusion)
EC50 [1]: 279 nM

Molecule: EG2 VHH
Kd [2]: 19.1 nM | Kd [3]: 14.6 nM | kon [3]: 1.2e+06 M⁻¹ s⁻¹ | Kd [4]: 11.1 nM | kon [4]: 850000 M⁻¹ s⁻¹

B1: NRC-sdAb021 (VHH)
VHH: QVQLVESGGGLVQPGGSLRLSCSVSLSDFGSKHLAWHRQAPGKEREWVALIFSSGATNYANSVKGRFTISRDNSKNTVYLQMNSLKPEDTAVYYCNLVPPSPAWGQGTQVTVSS
notes: Monomeric llama VHH purified from E. coli periplasm; also called EGFR1; not shown: C-terminal c-Myc and 6xHis tags
Kd [5]: 38.5 nM | Kd [3]: 40.4 nM | koff [3]: 0.0098 s⁻¹ | kon [3]: 240000 M⁻¹ s⁻¹ | Kd [6]: 38.5 nM | koff [6]: 0.012 s⁻¹ | kon [6]: 310000 M⁻¹ s⁻¹

B2: NRC-sdAb022 (VHH)
VHH: QVQLVESGGGLVQPGGSLKLSCAVSGFAFERNGVSWYRQAPGKQREFVAVISSGTTTYKDSVKGRFTISRDNTRNTAYLQMNNLKPEDTAVYYCNLVPPTPYWGQGTQVTVSS
notes: Monomeric llama VHH; in ELISA a version with biotin acceptor peptide and 6xHis was used; Stands for the 'NRC-sdAb022-family' in the cross-species and binning sentences; also called EGFR2; NRC-sdAb022-family VHHs; not shown: C-terminal c-Myc and 6xHis tags
Kd [7]: 8.9 nM | koff [7]: 0.0022 s⁻¹ | kon [7]: 250000 M⁻¹ s⁻¹ | Kd [3]: 2.6 nM | koff [3]: 0.00077 s⁻¹ | kon [3]: 290000 M⁻¹ s⁻¹ | Kd [4]: 8.9 nM | koff [4]: 0.0022 s⁻¹ | kon [4]: 250000 M⁻¹ s⁻¹ | Kd [6]: 1.7 nM | koff [6]: 0.00067 s⁻¹ | kon [6]: 400000 M⁻¹ s⁻¹ | koff [8]: 0.0017 s⁻¹ | kon [8]: 85000 M⁻¹ s⁻¹ | Kd [9]: 19.6 nM | EC50 (read off the curve) [10]: ~0.003 µg/mL | EC50 (read off the curve) [11]: ~0.004 µg/mL | binding result [12]: no binding (tested: 1000 ng/mL)

B3: NRC-sdAb027 (VHH)
VHH: B2 VHH with Q3K, V5E, V97I
notes: Monomeric llama VHH; also called EGFR7; not shown: C-terminal c-Myc and 6xHis tags
Kd [5]: 1.6 nM | Kd [3]: 2.3 nM | koff [3]: 0.00086 s⁻¹ | kon [3]: 380000 M⁻¹ s⁻¹ | Kd [6]: 1.6 nM | koff [6]: 0.00079 s⁻¹ | kon [6]: 510000 M⁻¹ s⁻¹

B4: NRC-sdAb023 (VHH)
VHH: QVQLVESGGGLVQPGGSLRLSCTASGIIFSRNGVSWYRQAPGKEREFVAVITLSGTTTYKDSVKGRFTISRDNTRNTGYLQMNNLKPEDTAVYYCNLVPPTSYWGQGTQVTVSS
notes: Monomeric llama VHH; also called EGFR3; not shown: C-terminal c-Myc and 6xHis tags
Kd [3]: 19.4 nM | Kd [6]: 12.6 nM | koff [6]: 0.0057 s⁻¹ | kon [6]: 460000 M⁻¹ s⁻¹

B5: NRC-sdAb024 (VHH)
VHH: QVQLVESGGGLVQPGGSLRLSCAASGSSLYINAMTWYRQAPGEQREFVAIISRGGDTKYSDSVKGRFSISIDNAKNTVYLQMNSLKAEDTAVYYCNAVPPFPNWGQGTQVTVSS
notes: Monomeric llama VHH; also called EGFR4; not shown: C-terminal c-Myc and 6xHis tags
Kd [3]: 4.9 nM | koff [3]: 0.0009 s⁻¹ | kon [3]: 180000 M⁻¹ s⁻¹ | Kd [6]: 2.9 nM | koff [6]: 0.00073 s⁻¹ | kon [6]: 250000 M⁻¹ s⁻¹

B6: NRC-sdAb025 (VHH)
VHH: B5 VHH with Y30T, E43D, Q44E, I51V, S52Y, D56G, S60A
notes: Monomeric llama VHH; also called EGFR5; not shown: C-terminal c-Myc and 6xHis tags
Kd [3]: 2.8 nM | koff [3]: 0.00071 s⁻¹ | kon [3]: 260000 M⁻¹ s⁻¹ | Kd [6]: 1.7 nM | koff [6]: 0.00059 s⁻¹ | kon [6]: 360000 M⁻¹ s⁻¹

B7: NRC-sdAb026 (VHH)
VHH: QVQLVESGGALVQPGGSLRLSCSASGVIFGINTLAWHRQAPGKEREWVALISNAGSTKYAGSVKGRFTISRDNDKNTVYLQMDSLKPEDTAVYYCNYVPPSPAWGQGTQVTVSS
notes: Monomeric llama VHH; also called EGFR6; not shown: C-terminal c-Myc and 6xHis tags
Kd [3]: 25 nM | koff [3]: 0.0068 s⁻¹ | kon [3]: 270000 M⁻¹ s⁻¹ | Kd [6]: 15.4 nM | koff [6]: 0.0056 s⁻¹ | kon [6]: 360000 M⁻¹ s⁻¹

B8: NRC-sdAb028-H1 (VHH)
VHH: QVQLVESGGGVVQPGRSLRLSCTVSGSFFSRDAMGWHRQAPGKGLEMVAGISSGGLSNHAESVKGRFTISRDNSKNTLYLQMNSLRAEDTAVYYCSIYEDGVWTSWGQGTLVTVSS
notes: Humanized variant H1 of NRC-sdAb028
Kd [7]: 6.2 nM | koff [7]: 0.00058 s⁻¹ | kon [7]: 93000 M⁻¹ s⁻¹

B10: NRC-sdAb032-Fc (Fc fusion)
chain: QVKLEESGGGLVQPGGSLRLSCSASGSISSISVMGWYRQAPGKQRELVARITSGGISNYVDSVKGRFTISGDSAKNIVYLQMNSLKPEDTAVYYCYMYVHVGYWVDYWGQGTQVTVSS
notes: Bivalent VHH-human IgG1 Fc fusion from HEK293-6E cells; also called homodimeric NRC-sdAb032-Fc; not shown: human IgG1 Fc
EC50 [1]: 0.5 nM | EC50 [17]: 0.9 nM

B14: NRC-sdAb022-Fc (Fc fusion)
chain: B2 VHH
notes: Bivalent VHH-human IgG1 Fc fusion from HEK293-6E cells; not shown: human IgG1 Fc
EC50 [1]: 67 nM

B15: NRC-sdAb028-Fc (Fc fusion)
chain: B8 VHH with Q1E, V11L, R16G, G44Q, L45R, L78V, S84N, R86K, A87P, L111Q
notes: as for B14
EC50 [1]: 86 nM

B18: NRC-sdAb033-H2 (VHH)
VHH: QVQLVESGGGVVQPGRSLRLSCAASESIDSIYVMQWYRQAPGKGLEVVATLTPGGGSYYPDSVKGRFTISRDNSKNTLYLQMNSLRAEDTAVYYCNAFHRLRGTHYWGQGTLVTVSS
notes: Humanized variant H2 of NRC-sdAb033
Kd [7]: 1.4 nM | koff [7]: 0.00026 s⁻¹ | kon [7]: 200000 M⁻¹ s⁻¹

Now from value to molecule:

Kd [7]: 1.8 nM | koff [7]: 0.00016 s⁻¹ | kon [7]: 90000 M⁻¹ s⁻¹ | Kd [4]: 1.8 nM | koff [4]: 0.00016 s⁻¹ | kon [4]: 90000 M⁻¹ s⁻¹ | Kd [13]: 3.1 nM | koff [13]: 0.00028 s⁻¹ | kon [13]: 92000 M⁻¹ s⁻¹ | Kd [6]: 1.1 nM | koff [6]: 0.00017 s⁻¹ | kon [6]: 150000 M⁻¹ s⁻¹ | koff [8]: 0.00011 s⁻¹ | kon [8]: 110000 M⁻¹ s⁻¹ | Kd [9]: 1 nM | EC50 (read off the curve) [14]: ~0.02 µg/mL | EC50 (read off the curve) [15]: ~0.02 µg/mL | EC50 (read off the curve) [16]: ~0.02 µg/mL
B9: NRC-sdAb033 (VHH)
VHH: QVQLVESGGGLVQPGGSLRLSCAASESIDSIYVMQWYRQAPEKPRDVVATLTPGGGSYYPEAVLGRFTISRDDAKNTVYLQMNSLKPEDTAVYYCNAFHRLRGTHYWGQGTQVTVSS
notes: Monomeric llama VHH; in ELISA a version with biotin acceptor peptide and 6xHis was used; also called EVE48; not shown: C-terminal c-Myc and 6xHis tags

EC50 [17]: 1.6 nM
B11: NRC-sdAb032/NRC-sdAb022-Fc (Fc fusion)
chain 1: B10 chain
chain 2: B2 VHH
notes: Member of the group m26; also called NRC-sdAb032/022-Fc; biparatopic heterodimeric VHH/VHH-Fc

EC50 [17]: 2.1 nM
B12: NRC-sdAb032/NRC-sdAb028-Fc (Fc fusion)
chain 1: B10 chain
chain 2: B8 VHH with Q1E, V11L, R16G, G44Q, L45R, L78V, S84N, R86K, A87P, L111Q
notes: Member of the group m26; also called NRC-sdAb032/028-Fc; biparatopic heterodimeric VHH/VHH-Fc

EC50 [17]: 1.8 nM
B13: NRC-sdAb032/NRC-sdAb033-Fc (Fc fusion)
chain 1: B10 chain
chain 2: B9 VHH
notes: Member of the group m26; also called NRC-sdAb032/033-Fc; biparatopic heterodimeric VHH/VHH-Fc

EC50 [1]: 49 nM
B16: NRC-sdAb033-Fc (Fc fusion)
chain: B9 VHH
notes: as for B14

Kd [7]: 16.6 nM | koff [7]: 0.01 s⁻¹ | kon [7]: 620000 M⁻¹ s⁻¹
B17: NRC-sdAb032-H1 (VHH)
VHH: QVQLVESGGGLVQPGRSLRLSCSASGSISSISVMGWYRQAPGKGLELVARITSGGISNYVDSVKGRFTISRDSNSKNTLYLQMNSLRAEDTAVYYCYMYVHVGYWVDYWGQGTLVTVSS
notes: Humanized variant H1 of NRC-sdAb032

Kd [7]: 1.7 nM | koff [7]: 0.00022 s⁻¹ | kon [7]: 130000 M⁻¹ s⁻¹
B19: NRC-sdAb033-H1 (VHH)
VHH: B18 VHH with G42E, E46D, D61E
notes: Humanized variant H1 of NRC-sdAb033

— patent publication US20240156870A1 (NATIONAL RESEARCH COUNCIL OF CANADA, published 2024)
